# FireProtDB (doi:10.1021/bi034798l)
# B1: SH2 domain-containing protein 1A, O60880 (parent)
# chain: MDAVAVYHGKISRETGEKLLLATGLDGSYLLRDSESVPGVYCLCVLYHGYIYTYRVSQTETGSWSAETAPGVHKRYFRKIKNLISAFQKPDQGIVIPLQYPVEKKSSARSTQGTTGIREDPDVCLKAP
# Variants of: B1
# Conditions: Homo sapiens; pH 7.4; Thermal; CD; Phosphate buffer saline; structure 1KA6; whole UniProt chain shown
Variant,Tm,"change of melting temperature, mutant - wild type (higher = more stable)"
L31P,45.6 °C,-12.2 °C
Y54C,48.2 °C,-9.6 °C
E67D,44.2 °C,-13.6 °C
F87S,50.5 °C,-7.3 °C
G93D,49.1 °C,-8.7 °C
